Source: US20220235344A1, “TRYPSIN VARIANTS WITH IMPROVED ENZYMATIC PROPERTIES” (BIOPHARMA TRANSLATIONSINSTITUT DESSAU FORSCHUNGS GMBH, priority 2018, published 2022)

How the values were obtained:
Assay type in all cases: biochemical
[1] = target: T1, Bz-PGGYRAHAG-OH (acyl donor) (Rattus norvegicus, UniProt P00763, A221T/D194K/E154Y/G219Q/H46F/K102D/K66E/L104F/N146E/Q197A/R101E/S195V/S215G/Y45H/Y65H); assay: Turnover rate of the hydrolysis reaction in the absence of a nucleophilic peptide; settings: Zinc ions: no; varying Bz-PGGYRAHAG-OH, 2 μM trypsin variant, no nucleophilic peptide
T1 construct: made in house; host or cells: Pichia pastoris X-33
T1 sequence (P00763 24-246 Y45H/H46F/Y65H/K66E/R101E/K102D/L104F/N146E/E154Y/D194K/S195V/Q197A/S215G/G219Q/A221T): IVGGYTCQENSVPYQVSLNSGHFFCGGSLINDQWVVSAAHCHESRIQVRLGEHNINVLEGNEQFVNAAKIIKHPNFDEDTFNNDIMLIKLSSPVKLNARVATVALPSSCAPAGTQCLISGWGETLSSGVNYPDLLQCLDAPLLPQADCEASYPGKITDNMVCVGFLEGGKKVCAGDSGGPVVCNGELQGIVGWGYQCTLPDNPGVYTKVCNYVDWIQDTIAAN
Experimental: (§1) Hydrolysis reactions were performed in a solution containing varying concentrations of the acyl donor Bz-[…]-OH (0-5000 μM for Trypsiligase II, 0-1500 μM for variant A2C8), 2 μM trypsin variant, 100 mM HEPES/NaOH pH 7.8, 100 mM NaCl, 10 mM CaCl2 at 30° C. In case of Trypsiligase II the reactions were performed in the presence of 100 μM ZnCl2. The reaction was started by the addition of enzyme. For kinetic evaluation of the reaction several aliquots of the reaction mixture were quenched with 25% (v/v) acetic acid at distinct time points within 30 minutes. The composition of the reaction mixture was analyzed by UPCL using method I (see example 1). UV absorption of the N-terminal benzoyl-group (Bz-), which is present in the acyl donor as well as in the hydrolysis product, was detected at 254 nm. To determine the turnover rate of the hydrolysis reaction (kcat,HL) the initial rates for the hydrolysis reaction were plotted against the corresponding acyl donor concentration and fitted to the Michaelis Menten equation. Measurements were performed as duplicates and errors were less than 5%.

[2] = tested on: Bz-PGGYRAHAG-OH (acyl donor); assay: as above
Experimental: as §1

[3] = tested on: R1-YRAH-R2 (Bz-PGGYRAHAG-OH) / H-RAHAK(DNP)-OH; assay: Zinc dependence of the transamidation reaction, A2C8 and K7F11, YRAH
Experimental: Model transamidation reactions were performed in a solution containing 15 to 250 μM acyl donor, 2 eq. of the corresponding acyl acceptor, varying concentrations of trypsin variant, 100 mM HEPES/NaOH pH 7.8, ±0.1 mM ZnC12, 100 mM NaCl, 10 mM CaCl2) at 30° C. Acyl donor and acyl acceptor had the same amino acids in P1′-P3′ position, e.g. Bz-[…]+H-RAHAK-OH or Bz-[…]+H-RKKAK-OH. Variations are indicated. The acyl acceptor could be equipped with a 2,4-Dinitrophenyl group (DNP) at the side chain of the terminal lysine, e.g. H-RAHAK(DNP)-OH or H-RKKAK(DNP)-OH. The reactions were started by the addition of enzyme. To record the time course of product formation and/or for kinetic evaluation of the reaction several aliquots of the reaction mixture were quenched with 25% (v/v) acetic acid at distinct time points within up to 4 hours. The composition of the reaction mixture was analyzed by UPCL with method I or II, depending on the absence (method 1) or presence (method II) of a 2,4-dinitrophenyl group within the acyl acceptor (see example 1). Measurements were performed as duplicates and errors were less than 5%.

[4] = target: T2, Bz-PGGYRAHAG-OH (acyl donor) (Rattus norvegicus, UniProt P00763, D194K/K66E/Y45H/Y65H); assay: Turnover rate of the hydrolysis reaction in the absence of a nucleophilic peptide; settings: Zinc ions (100 μM): yes; varying Bz-PGGYRAHAG-OH, 2 μM trypsin variant, no nucleophilic peptide
T2 construct: made in house; host or cells: Pichia pastoris X-33
T2 sequence (P00763 24-246 Y45H/Y65H/K66E/D194K): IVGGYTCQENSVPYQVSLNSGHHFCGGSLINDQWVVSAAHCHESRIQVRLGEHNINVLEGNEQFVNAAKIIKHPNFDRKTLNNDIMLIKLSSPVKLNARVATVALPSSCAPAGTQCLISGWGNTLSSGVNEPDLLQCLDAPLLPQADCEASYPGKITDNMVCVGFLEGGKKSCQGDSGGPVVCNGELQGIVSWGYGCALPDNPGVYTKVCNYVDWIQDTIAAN
Experimental: as §1

[5] = R1-YRAH-R2, 100 μM acyl donor, 200 μM acyl acceptor, absence of zinc ions

B1: A2C8: Trypsiligase II + H40F, A55A, R96E, K97D, L99F, N143E, E151Y, S190V, Q192A, S214G, G219Q, A221T (protein)
chain: T1 sequence (P00763 24-246 Y45H/H46F/Y65H/K66E/R101E/K102D/L104F/N146E/E154Y/D194K/S195V/Q197A/S215G/G219Q/A221T)
[1]
  kcat, HL (mkat/mol): 86.6 mkat/mol
[2]
  reduction in the enzyme's hydrolysis activity versus Trypsiligase II (factor): 7
[3]; A2C8: substrates with YRAH and YRKH sequence, K7F11: YRAH substrate only
  dependence for zinc ions: no dependence for zinc ions
[3]; R1-YRAH-R2, 100 μM acyl donor, 200 μM acyl acceptor, 2 μM trypsin variant, 0.1 mM ZnCl2
  kcat, AL^app + Zn^2+ (mkat/mol): 9.46 mkat/mol
[3]; R1-YRAH-R2, 100 μM acyl donor, 200 μM acyl acceptor, 0.1 mM ZnCl2
  product yield + Zn^2+ (%): 53.3%
[3]; [5]
  kcat, AL^app − Zn^2+ (mkat/mol): 14.51 mkat/mol
  product yield − Zn^2+ (%): 50.4%

B2: Trypsiligase II (trypsin variant Y39H/Y59H/K60E/D189K) (protein)
chain: T2 sequence (P00763 24-246 Y45H/Y65H/K66E/D194K)
[4]
  kcat, HL (mkat/mol): 602.1 mkat/mol
